Sequences and labels used below:
B1: Lyn SH3 domain (domain or fragment)
chain: EQGDIVVALYPYDGIHPDDLSFKKGEKMKVLEEHGEWWKAKSLLTKKEGFIPSNYVAKLNT
B2: VSL12 peptide (peptide)
peptide: VSLARRPLPPLP
modifications: also: biotin (site not given here)
notes: Biotinylated for immobilisation in SPR; source: synthetic peptide (University of Pittsburgh Peptide Synthesis Core)

Ends that are not written are not given here.

Experiment [1] concerns the target B2. Briefly: SPR; same runs as a1 (biotinylated VSL12 on a streptavidin chip, 25°C, HBS-EP); equilibrium responses against analyte concentration, steady state model. The conditions noted are these: both partners purified.
Experiment [2] concerns the target B2. Briefly: SPR; Biacore 3000; biotinylated VSL12 immobilised to 80 RU on a streptavidin chip; domain proteins flowed in duplicate at 25°C in HBS-EP (10 mM HEPES pH 7.4, 150 mM NaCl, 3 mM EDTA, 0.05% P20); 180 s association, 300 s dissociation; double referenced; kinetic fit, 1:1 Langmuir model. The conditions noted are these: both partners purified. Background: Surface plasmon resonance follows binding to a sensor surface in real time, without labels.

Experiment [3] addresses T1, c-Src SH3 domain (human, UniProt P12931-1 81-142).
T1 construct: human c-Src, SH3 domain, residues 81-142; Cloned into pET21a through NdeI and XhoI; source: E. coli Rosetta 2(DE3)pLysS, purified (anion exchange, IMAC, SEC)
Put plainly: SPR; same runs as a1 (biotinylated VSL12 on a streptavidin chip, 25°C, HBS-EP); equilibrium responses against analyte concentration, steady state model. The conditions noted are these: both partners purified.

The next experiment has as its target Lyn-YEEI (human, phosphotyrosine in the C-terminal tail (pTyr-Glu-Glu-Ile-Pro)). Put plainly: cell-based or functional assay.
In a further experiment the target is Fyn-YEEI (human, phosphotyrosine in the C-terminal tail (pTyr-Glu-Glu-Ile-Pro)). Briefly: cell-based or functional assay.
Experiment [4] has as its target T1, c-Src SH3 domain. Put plainly: SPR; Biacore 3000; biotinylated VSL12 immobilised to 80 RU on a streptavidin chip; domain proteins flowed in duplicate at 25°C in HBS-EP (10 mM HEPES pH 7.4, 150 mM NaCl, 3 mM EDTA, 0.05% P20); 180 s association, 300 s dissociation; double referenced; kinetic fit, 1:1 Langmuir model. To be noted: both partners purified.

Consider B1, for which the affinity with VSL12 peptide [1], expressed as Kd, was 0.562 µM. Besides, in the experiment with VSL12 peptide [2], the dissociation constant (Kd) (in general, a measure of binding affinity in units of concentration) was 0.647 µM; the off-rate (koff) (commonly a measure of how fast the partners let go of each other) was determined as 0.137 s⁻¹; the kon (as a rule, a measure of how fast the partners come together) stood at 212000 M⁻¹ s⁻¹.

Regarding B2, the results for the dissociation constant Kd with c-Src SH3 domain [3] and in the experiment with c-Src SH3 domain [4] were 4 µM and 3.42 µM, respectively. Further, the entries for the “Kact: VSL12 concentration at half-maximal activation of kinase activity (ADP Quest kinetic kinase assay, VSL12 0.1 to 300 µM, basal rate subtracted)” value with Lyn-YEEI and with Fyn-YEEI were 4.03 µM and 24.9 µM, respectively.

These data come from PMC4140816 (PLoS ONE, 2014).
